Laboratory results as given in article PMC11415531 (Synthetic and Systems Biotechnology, 2024).

Biological target: the molecule itself
Assay: crystal structure

B1: S-adenosyl-L-methionine-dependent methyltransferase RdmB from Streptomyces purpurascens (enzyme)
chain: MSSSSPGEPLEPTDQDLDVLLKNLGNLVTPMALRVAATLRLVDHLLAGADTLAGLADRTDTHPQALSRLVRHLTVVGVLEGGEKQGRPLRPTRLGMLLADGHPAQQRAWLDLNGAVSHADLAFTGLLDVVRTGRPAYAGRYGRPFWEDLSADVALADSFDALMSCDEDLAYEAPADAYDWSAVRHVLDVGGGNGGMLAAIALRAPHLRGTLVELAGPAERARRRFADAGLADRVTVAEGDFFKPLPVTADVVLLSFVLLNWSDEDALTILRGCVRALEPGGRLLVLDRADVEGDGADRFFSTLLDLRMLTFMGGRVRTRDEVVDLAGSAGLALASERTSGSTTLPFDFSILEFTAVSEEAAPAAQASEALPAQE
B1: binds.
